The values that follow come from patent publication US8329168.

This series relates to Met-SC1-325-His-6 (fragment comprising residues 1-325 of staphylocoagulase with an additional Met at the NH2 terminus and a His tag fused to the COOH terminus).

On to “IIQ320 (recombinant human prothrombin containing Gln in place of Arg-320)”, for which the “conformational activation (initial rates of S2238 hydrolysis)” value was “Conformational activation of IIQ320 and its covalent inactivation with FPR-CH2Cl was accomplished by the addition of 43 µM Met-SC1-325-His-6”.
